Assay [1] concerns the target T1, FcγRIIa H (human, UniProt P12318 34-217).
T1 construct: extracellular domain; also called FcgRIIa H; FcγRIIa type H
T1 sequence (looked up): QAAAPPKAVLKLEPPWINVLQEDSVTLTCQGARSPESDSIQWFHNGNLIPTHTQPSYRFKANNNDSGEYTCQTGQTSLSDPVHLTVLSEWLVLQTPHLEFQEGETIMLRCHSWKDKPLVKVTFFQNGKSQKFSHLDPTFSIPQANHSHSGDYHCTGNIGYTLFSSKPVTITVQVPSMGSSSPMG
The assay is described as follows: SPR (Biacore), antibody captured, FcγR analyte; binding relative to GpH7-A5/GpH7-B3/GpL16-k0 = 100. On the technique in general: SPR reads the build-up and loss of mass on a sensor chip optically.

The next assay has as its target T2, FcγRIIb (human, UniProt P31994 43-217).
T2 construct: extracellular domain; also called FcgRIIb; 2b
T2 sequence (looked up): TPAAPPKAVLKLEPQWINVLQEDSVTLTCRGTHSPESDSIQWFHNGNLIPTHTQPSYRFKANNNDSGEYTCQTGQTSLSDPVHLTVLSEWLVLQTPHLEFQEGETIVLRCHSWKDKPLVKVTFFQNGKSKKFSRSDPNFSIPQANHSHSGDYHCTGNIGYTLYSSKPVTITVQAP
Described as above.

In assay [2] the target is T1, FcγRIIa H. In words: SPR (Biacore); He/Con_2aH divided by He/Con_2b (FcγRIIa H over FcγRIIb).

B1: GpH7-A5/GpH7-B3 variant G237_03V/GpL16-k0 (antibody, human IgG1, kappa)
heavy 1: not shown
heavy 2: not shown
light: DIVMTQSPLSLPVTPGEPASISCQASESLVHSNRNTYLHWYLQKPGQSPQLLIYKVSNRFSGVPDRFSGSGSGTDFTLKISRVEAEDVGVYYCSQNTHVPPTFGQGTKVEIERTVAAPSVFIFPPSDEQLKSGTASVVCLLNNFYPREAKVQWKVDNALQSGNSQESVTEQDSKDSTYSLSSTLTLSKADYEKHKVYACEVTHQGLSSPVTKSFNRGEC
notes: Heterodimerized antibody, alteration in one H chain only; also called He Ab G237V
Turning to B1, in the assay with FcγRIIa H [1], the He/Con_2aH was 39.4 % of control. Further, the He/Con_2b with FcγRIIb is 61.4 % of control. Besides, the “He_2aH/2b (IIaH/IIb)” value with FcγRIIa H [2] was determined as 0.64 ratio.

B2: GpH7-A5/GpH7-B3 variant G237_14T/GpL16-k0 (antibody, human IgG1, kappa)
heavy 1: not shown
heavy 2: not shown
light: DIVMTQSPLSLPVTPGEPASISCQASESLVHSNRNTYLHWYLQKPGQSPQLLIYKVSNRFSGVPDRFSGSGSGTDFTLKISRVEAEDVGVYYCSQNTHVPPTFGQGTKVEIERTVAAPSVFIFPPSDEQLKSGTASVVCLLNNFYPREAKVQWKVDNALQSGNSQESVTEQDSKDSTYSLSSTLTLSKADYEKHKVYACEVTHQGLSSPVTKSFNRGEC
notes: Heterodimerized antibody, alteration in one H chain only; also called He Ab G237T
As to B2, in the assay with FcγRIIa H [1], the He/Con_2aH was 31.8 % of control. Also, in the assay with FcγRIIb, the He/Con_2b is 54.8 % of control. In addition, the “He_2aH/2b (IIaH/IIb)” value with FcγRIIa H [2] was found to be 0.58 ratio.

B3: GpH7-A5/GpH7-B3 variant G237_15Y/GpL16-k0 (antibody, human IgG1, kappa)
heavy 1: not shown
heavy 2: not shown
light: DIVMTQSPLSLPVTPGEPASISCQASESLVHSNRNTYLHWYLQKPGQSPQLLIYKVSNRFSGVPDRFSGSGSGTDFTLKISRVEAEDVGVYYCSQNTHVPPTFGQGTKVEIERTVAAPSVFIFPPSDEQLKSGTASVVCLLNNFYPREAKVQWKVDNALQSGNSQESVTEQDSKDSTYSLSSTLTLSKADYEKHKVYACEVTHQGLSSPVTKSFNRGEC
notes: Heterodimerized antibody, alteration in one H chain only; also called He Ab G237Y
Take B3: the He/Con_2aH in the assay with FcγRIIa H [1] is 25.4 % of control. For the same molecule, the He/Con_2b with FcγRIIb is 152 % of control. In the assay with FcγRIIa H [2], the “He_2aH/2b (IIaH/IIb)” value stood at 0.17 ratio.

B4: GpH7-A5/GpH7-B3 variant G237_04F/GpL16-k0 (antibody, human IgG1, kappa)
heavy 1: not shown
heavy 2: not shown
light: DIVMTQSPLSLPVTPGEPASISCQASESLVHSNRNTYLHWYLQKPGQSPQLLIYKVSNRFSGVPDRFSGSGSGTDFTLKISRVEAEDVGVYYCSQNTHVPPTFGQGTKVEIERTVAAPSVFIFPPSDEQLKSGTASVVCLLNNFYPREAKVQWKVDNALQSGNSQESVTEQDSKDSTYSLSSTLTLSKADYEKHKVYACEVTHQGLSSPVTKSFNRGEC
notes: Heterodimerized antibody, alteration in one H chain only; also called He Ab G237F
As to B4, the He/Con_2aH with FcγRIIa H [1] is 41.4 % of control. Further, the He/Con_2b with FcγRIIb is 149 % of control. Besides, the “He_2aH/2b (IIaH/IIb)” value with FcγRIIa H [2] turned out to be 0.28 ratio.

B5: GpH7-A5/GpH7-B3 variant G237_18N/GpL16-k0 (antibody, human IgG1, kappa)
heavy 1: not shown
heavy 2: not shown
light: DIVMTQSPLSLPVTPGEPASISCQASESLVHSNRNTYLHWYLQKPGQSPQLLIYKVSNRFSGVPDRFSGSGSGTDFTLKISRVEAEDVGVYYCSQNTHVPPTFGQGTKVEIERTVAAPSVFIFPPSDEQLKSGTASVVCLLNNFYPREAKVQWKVDNALQSGNSQESVTEQDSKDSTYSLSSTLTLSKADYEKHKVYACEVTHQGLSSPVTKSFNRGEC
notes: Heterodimerized antibody, alteration in one H chain only; also called He Ab G237N
With B5, in the assay with FcγRIIa H [1], the He/Con_2aH is 15.2 % of control. Also, the He/Con_2b in the assay with FcγRIIb was 180 % of control. For the same molecule, the “He_2aH/2b (IIaH/IIb)” value with FcγRIIa H [2] came out at 0.08 ratio.

B6: GpH7-A5/GpH7-B3 variant G237_08L/GpL16-k0 (antibody, human IgG1, kappa)
heavy 1: not shown
heavy 2: not shown
light: DIVMTQSPLSLPVTPGEPASISCQASESLVHSNRNTYLHWYLQKPGQSPQLLIYKVSNRFSGVPDRFSGSGSGTDFTLKISRVEAEDVGVYYCSQNTHVPPTFGQGTKVEIERTVAAPSVFIFPPSDEQLKSGTASVVCLLNNFYPREAKVQWKVDNALQSGNSQESVTEQDSKDSTYSLSSTLTLSKADYEKHKVYACEVTHQGLSSPVTKSFNRGEC
notes: Heterodimerized antibody, alteration in one H chain only; also called He Ab G237L
On to B6, for which the He/Con_2aH with FcγRIIa H [1] was 13.9 % of control. Also, the He/Con_2b in the assay with FcγRIIb is 148 % of control. For the same molecule, the “He_2aH/2b (IIaH/IIb)” value in the assay with FcγRIIa H [2] was found to be 0.09 ratio.

B7: GpH7-A5/GpH7-B3 variant G237_13S/GpL16-k0 (antibody, human IgG1, kappa)
heavy 1: not shown
heavy 2: not shown
light: DIVMTQSPLSLPVTPGEPASISCQASESLVHSNRNTYLHWYLQKPGQSPQLLIYKVSNRFSGVPDRFSGSGSGTDFTLKISRVEAEDVGVYYCSQNTHVPPTFGQGTKVEIERTVAAPSVFIFPPSDEQLKSGTASVVCLLNNFYPREAKVQWKVDNALQSGNSQESVTEQDSKDSTYSLSSTLTLSKADYEKHKVYACEVTHQGLSSPVTKSFNRGEC
notes: Heterodimerized antibody, alteration in one H chain only; also called He Ab G237S
For the molecule B7, in the assay with FcγRIIa H [1], the He/Con_2aH is 29.8 % of control. The He/Con_2b with FcγRIIb is 111 % of control. Besides, the “He_2aH/2b (IIaH/IIb)” value with FcγRIIa H [2] was determined as 0.27 ratio.

B8: GpH7-A5/GpH7-B3 variant G237_19Q/GpL16-k0 (antibody, human IgG1, kappa)
heavy 1: not shown
heavy 2: not shown
light: DIVMTQSPLSLPVTPGEPASISCQASESLVHSNRNTYLHWYLQKPGQSPQLLIYKVSNRFSGVPDRFSGSGSGTDFTLKISRVEAEDVGVYYCSQNTHVPPTFGQGTKVEIERTVAAPSVFIFPPSDEQLKSGTASVVCLLNNFYPREAKVQWKVDNALQSGNSQESVTEQDSKDSTYSLSSTLTLSKADYEKHKVYACEVTHQGLSSPVTKSFNRGEC
notes: Heterodimerized antibody, alteration in one H chain only; also called He Ab G237Q
With B8, in the assay with FcγRIIa H [1], the He/Con_2aH was 26.5 % of control. Further, the He/Con_2b with FcγRIIb is 108 % of control. The “He_2aH/2b (IIaH/IIb)” value in the assay with FcγRIIa H [2] is 0.25 ratio.

B9: GpH7-A5/GpH7-B3 variant G237_16H/GpL16-k0 (antibody, human IgG1, kappa)
heavy 1: not shown
heavy 2: not shown
light: DIVMTQSPLSLPVTPGEPASISCQASESLVHSNRNTYLHWYLQKPGQSPQLLIYKVSNRFSGVPDRFSGSGSGTDFTLKISRVEAEDVGVYYCSQNTHVPPTFGQGTKVEIERTVAAPSVFIFPPSDEQLKSGTASVVCLLNNFYPREAKVQWKVDNALQSGNSQESVTEQDSKDSTYSLSSTLTLSKADYEKHKVYACEVTHQGLSSPVTKSFNRGEC
notes: Heterodimerized antibody, alteration in one H chain only; also called He Ab G237H
For the molecule B9, the He/Con_2aH with FcγRIIa H [1] is 16.4 % of control. Moreover, the He/Con_2b with FcγRIIb is 55.2 % of control. The “He_2aH/2b (IIaH/IIb)” value in the assay with FcγRIIa H [2] turned out to be 0.3 ratio.

B10: GpH7-A5/GpH7-B3 variant G237_06M/GpL16-k0 (antibody, human IgG1, kappa)
heavy 1: not shown
heavy 2: not shown
light: DIVMTQSPLSLPVTPGEPASISCQASESLVHSNRNTYLHWYLQKPGQSPQLLIYKVSNRFSGVPDRFSGSGSGTDFTLKISRVEAEDVGVYYCSQNTHVPPTFGQGTKVEIERTVAAPSVFIFPPSDEQLKSGTASVVCLLNNFYPREAKVQWKVDNALQSGNSQESVTEQDSKDSTYSLSSTLTLSKADYEKHKVYACEVTHQGLSSPVTKSFNRGEC
notes: Heterodimerized antibody, alteration in one H chain only; also called He Ab G237M
For the molecule B10, the He/Con_2aH with FcγRIIa H [1] was 17.8 % of control. For the same molecule, in the assay with FcγRIIb, the He/Con_2b was 130 % of control. The “He_2aH/2b (IIaH/IIb)” value in the assay with FcγRIIa H [2] came out at 0.14 ratio.

B11: GpH7-A5/GpH7-B3 variant G237_11K/GpL16-k0 (antibody, human IgG1, kappa)
heavy 1: not shown
heavy 2: not shown
light: DIVMTQSPLSLPVTPGEPASISCQASESLVHSNRNTYLHWYLQKPGQSPQLLIYKVSNRFSGVPDRFSGSGSGTDFTLKISRVEAEDVGVYYCSQNTHVPPTFGQGTKVEIERTVAAPSVFIFPPSDEQLKSGTASVVCLLNNFYPREAKVQWKVDNALQSGNSQESVTEQDSKDSTYSLSSTLTLSKADYEKHKVYACEVTHQGLSSPVTKSFNRGEC
notes: Heterodimerized antibody, alteration in one H chain only; also called He Ab G237K
With B11, the He/Con_2aH in the assay with FcγRIIa H [1] was 5.8 % of control. The He/Con_2b in the assay with FcγRIIb is 9 % of control. In addition, in the assay with FcγRIIa H [2], the “He_2aH/2b (IIaH/IIb)” value is 0.64 ratio.

B12: GpH7-A5/GpH7-B3 variant G237_09D/GpL16-k0 (antibody, human IgG1, kappa)
heavy 1: not shown
heavy 2: not shown
light: DIVMTQSPLSLPVTPGEPASISCQASESLVHSNRNTYLHWYLQKPGQSPQLLIYKVSNRFSGVPDRFSGSGSGTDFTLKISRVEAEDVGVYYCSQNTHVPPTFGQGTKVEIERTVAAPSVFIFPPSDEQLKSGTASVVCLLNNFYPREAKVQWKVDNALQSGNSQESVTEQDSKDSTYSLSSTLTLSKADYEKHKVYACEVTHQGLSSPVTKSFNRGEC
notes: Heterodimerized antibody, alteration in one H chain only; also called He Ab G237D
Regarding B12, the He/Con_2aH with FcγRIIa H [1] is 11.1 % of control. Besides, the He/Con_2b with FcγRIIb is 223 % of control. In the assay with FcγRIIa H [2], the “He_2aH/2b (IIaH/IIb)” value worked out at 0.05 ratio.

B13: GpH7-A5/GpH7-B3 variant G237_10E/GpL16-k0 (antibody, human IgG1, kappa)
heavy 1: not shown
heavy 2: not shown
light: DIVMTQSPLSLPVTPGEPASISCQASESLVHSNRNTYLHWYLQKPGQSPQLLIYKVSNRFSGVPDRFSGSGSGTDFTLKISRVEAEDVGVYYCSQNTHVPPTFGQGTKVEIERTVAAPSVFIFPPSDEQLKSGTASVVCLLNNFYPREAKVQWKVDNALQSGNSQESVTEQDSKDSTYSLSSTLTLSKADYEKHKVYACEVTHQGLSSPVTKSFNRGEC
notes: Heterodimerized antibody, alteration in one H chain only; also called He Ab G237E
With B13, the He/Con_2aH with FcγRIIa H [1] was 15.1 % of control. Further, the He/Con_2b with FcγRIIb is 114 % of control. The “He_2aH/2b (IIaH/IIb)” value with FcγRIIa H [2] came out at 0.13 ratio.

Values taken from patent US20150344570A1 (published 2015).
